# According to patent US20080132445A1, “Method for Inducing Mammary Epithelial Cell Differentiation” (Garvan Institute of Medical Reserach, priority 2002, published 2008):
# What was measured:
# [1] = tested on: GalR1; conditions: stated as known; cited from earlier work
# [2] = tested on: galanin expression (galanin promoter estrogen response element); conditions: Howard et al 1997; Kaplan et al 1988; cited from earlier work
# [3] = tested on: mammary glands (lobuloalveolar development); test: Mammary gland whole organ culture, morphology and histology; assay type: cell-based, BALB/c mice
# Procedure: (§1) Mammary whole mounts were made by spreading the gland on a glass slide and fixing in 10% formalin solution. Glands were defatted in acetone before carmine alum (0.2% carmine, 0.5% aluminium sulfate) staining overnight. The whole mount was dehydrated using a graded ethanol series followed by xylene treatment for 60 min and storage and photography in methyl salicylate. Morphometric analysis was performed by counting the number of side branches, alveolar buds or lobuloalveoli per mammary gland (n=5) for mammary gland cultures or from 4 representative fields of view from whole 4th inguinal glands.
# Four week old BALB/c mice were implanted with estrogen, progesterone and cholesterol pellets (Ginsburg and Vonderhaar, 2000). Following nine days of treatment, the whole fourth glands were removed and stretched onto siliconized lens paper and placed into petri dishes containing 2 mL of Waymouths 152/1 medium supplemented with penicillin (100 U/ml), streptomycin (100 μg/ml), gentamycin sulfate (50 μg/ml), 20 mM HEPES, insulin (5 μg/ml), hydrocortisone (100 ng/ml) and aldosterone (100 ng/ml) (basal medium, IAH) to monitor ductal side branching, with and without 100 nM rat galanin (Auspep). […] Medium was changed after 24 hr, then every second day for 6 days before morphology and histology were assessed.
# [4] = tested on: mammary gland gene expression; test: Transcript profiling of cultured mammary glands (Affymetrix MGU74Av2 GeneChips); assay type: cell-based, mice
# Procedure: (§2) Four week old BALB/c mice were implanted with estrogen, progesterone and cholesterol pellets (Ginsburg and Vonderhaar, 2000). Following nine days of treatment, the whole fourth glands were removed and stretched onto siliconized lens paper and placed into petri dishes containing 2 mL of Waymouths 152/1 medium supplemented with penicillin (100 U/ml), streptomycin (100 μg/ml), gentamycin sulfate (50 μg/ml), 20 mM HEPES, insulin (5 μg/ml), hydrocortisone (100 ng/ml) and aldosterone (100 ng/ml) (basal medium, IAH) to monitor ductal side branching, with and without 100 nM rat galanin (Auspep). To assess lobuloalveolar development ovine PRL (Sigma, 1 μg/ml) was added to the basal medium with or without galanin. Glands were maintained in a tri-gas incubator at 50% O2 and 5% CO2 in air. Medium was changed after 24 hr, then every second day for 6 days before morphology and histology were assessed.
# Total RNA was extracted using TRIZOL Reagent (Gibco BRL), purified using RNeasy Mini Kit (QIAGEN), cDNA synthesis performed using Superscript II (Invitrogen Life Technologies), synthesis of Biotin-labeled cRNA performed using BioArray HighYield RNA Transcript labeling Kit (Enzo Diagnostics) and hybridised to Affymetrix MGU74v2 GeneChips overnight as per manufacturers instructions. Arrays were performed in duplicate using 4-6 glands per treatment group from two separate replicate experiments. Analysis was performed using the Affymetrix GeneChip v5 software (MAS 5), with treatment groups compared back to IAH treatment as the baseline comparison. Principal Components Analysis was performed using JMP (SAS Institute). Venn diagrams where formed by selecting genes called increasing or decreasing by MAS 5 with a fold change greater then 1.7 compared to IAH. These groups were further restricted by excluding genes with a magnitude fold change >1.2 induced by the other treatments.
# (§3) Quantitative PCR was performed using LightCycler technology (Roche). Primers were designed on the basis of mismatch to other genes for WDMN1, β-Actin, WAP, β-casein, […], Elf5, Glycam1, IGF1, GHR, SPOT 14 and PRLR. PCR reactions were performed in 10 μL volume with 1 μL of cDNA, 5 pmoles of each primer and FastStart DNA Master SYBR Green I enzyme mix (Roche) as per manufacturers instructions. Relative quantitation of the product was performed by comparing the crossing points of different samples normalised to an internal control (β-Actin). Each cycle in the linear phase of the reaction corresponds to a two fold difference in transcript levels between samples. Each reaction was performed in triplicate using pooled RNA from the 4-6 mammary glands or the treatment groups utilised for transcript profiling.
# [5] = tested on: STAT5; test: Western analysis of cultured mammary glands: JAK/STAT pathway; assay type: cell-based, mice; conditions: western blot
# Procedure: as §2
# (§4) Following RNA extraction from mammary glands using TRIZOL Reagent (Gibco BRL), protein was extracted following the manufacturer's instructions. […] Specific binding was detected using Horseradish peroxidase conjugated secondary antibodies (Amersham Biosciences) with Chemiluminescence Reagent (PerkinElmer) and Biomax Light Film (Eastman Kodak Company).
# [6] = tested on: Akt; test: Western analysis of cultured mammary glands: PI3 kinase pathway; assay type: cell-based, mice; conditions: western blot
# Procedure: as §2
# Following RNA extraction from mammary glands using TRIZOL Reagent (Gibco BRL), protein was extracted following the manufacturer's instructions. Protein was separated using SDS-PAGE (Bio-Rad Laboratories), transferred to PVDF (Millipore) and blocked overnight with 5% skim milk powder, 2% fetal bovine serum, 50 mM sodium phosphate, 50 mM NaCl and 0.1% Tween 20. Membranes were incubated with one of the following primary antibodies: α-milk protein (Accurate Chemical & Scientific Corporation), α-STAT5a (Upstate Biotech), α-phospho-STAT5, α-phospho-Erk1/2, α-Erk2, α-phospho-Akt (S473), α-phospho-Akt (T308), α-Akt (Cell Signaling Technology) or α-β-Actin (Sigma). 20 μg of protein was loaded per lane except for α-milk protein were 400 ng of protein was loaded. Specific binding was detected using Horseradish peroxidase conjugated secondary antibodies (Amersham Biosciences) with Chemiluminescence Reagent (PerkinElmer) and Biomax Light Film (Eastman Kodak Company).
# [7] = tested on: Gal−/− mice mammary gland; test: Prl treatment of Gal−/− mice throughout pregnancy (mini-osmotic pump); assay type: in vivo, mouse
# Procedure: as §1
# On the morning of the observation of a vaginal plug, 6-8 week old mice were implanted with a 0.25 μl per hour, 28 day mini-osmotic pump (Alzet) containing unmodified Prl prepared as described (23). Either 0.6 or 1.2 μg were delivered per 24 hr. On the first day post-partum maternal behaviour of mothers was observed, pups were examined for the presence of milk and glands were taken for histological analysis.
# as §3
# [8] = tested on: milk proteins (WAP, α-casein, β-casein); test: Western analysis of cultured mammary glands: milk protein expression; assay type: cell-based, mice; conditions: western blot
# Procedure: as §2, §4
# [9] = tested on: ERK1/2; test: Western analysis of cultured mammary glands: MAP kinase pathway; assay type: cell-based, mice; conditions: western blot
# Procedure: as §2, §4
molecule,measurement,setting,value
"GALP (1-60): 60 amino acid neuropeptide, galanin-like peptide, binds GalR1 and GalR2 (APAHRGRGGWTLNSAGYLLGPVLHLPQMGDQDGKRETALEILDLWKAIDGLPYSHPPQPS; Galanin-like peptide; UniProt Q9UBC7 25-84, looked up)",affinity for GalR1,[1],poor affinity
estrogen,increase of galanin expression,[2],about 4000 fold
"PRL: prolactin; ovine PRL (Sigma, 1 μg/ml) in culture, unmodified Prl by mini-osmotic pump in mice (protein, UniProt P01240 31-229, looked up) Prolactin: TPVCPNGPGNCQVSLRDLFDRAVMVSHYIHNLSSEMFNEFDKRYAQGKGFITMALNSCHTSSLPTPEDKEQAQQTHHEVLMSLILGLLRSWNDPLYHLVTEVRGMKGVPDAILSRAIEIEEENKRLLEGMEMIFGQVIPGAKETEPYPVWSGLPSLQTKDEDARHSAFYNLLHCLRRDSSKIDTYLKLLNCRIIYNNNC",number of lobuloalveoli per gland,"[3]; IAH medium, PRL 1 μg/ml with or without 100 nM galanin",8.6±2.1
same,ductal or lobuloalveolar development by quantitative morphology and histology,"[3]; added to IAH medium, 100 nM galanin or ovine PRL 1 μg/ml, 6 days culture",lobuloalveolar development was observed
same,PDGFRA expression,[4]; cultured mammary glands,prevents galanin from reducing
same,regulation of galanin or its receptors,[4]; cultured mammary glands,did not regulate
same,genes regulated that are not regulated by the other hormone (unique transcriptional influence),[4]; fold change 1.7 versus IAH,160 genes
same,genes that changed expression in response to all three treatments,"[4]; fold change 1.7 versus IAH, 40% of all regulated genes",136 genes
same,genes regulated regardless of the presence of the other hormone,[4]; fold change greater than 1.7 versus IAH,154 genes
same,genes regulated by the other hormone whose regulation is antagonised,"[4]; prolactin against galanin's unique genes, galanin against 160 prolactin regulated genes",30/31
same,phosphorylated STAT5 / activation of the JAK/STAT pathway,[5],dramatic increase
same,total STAT5a,[5],increase
same,mobility of Akt,[6],decreased mobility
same,phosphorylation of T308 and S473 residues of Akt,[6],did not increase
same,total Akt,[6],no increase
same,lactation and pup survival,[7]; 0.6 or 1.2 μg PRL per 24 hours by mini osmotic pump throughout pregnancy,restored lactation and allowed pup survival
same,lobuloalveolar density (mammary gland whole mounts),"[7]; PRL throughout pregnancy, 1st day post-partum",partial rescue
same,Keratin18 levels,"[7]; PRL throughout pregnancy, quantitative RT-PCR",unchanged
same,"milk protein gene expression (WDMN1, β-casein, WAP), lobuloalveolar differentiation","[7]; PRL throughout pregnancy, quantitative RT-PCR, 1st day post-partum",did not even partially rescue
same,"milk protein synthesis (WAP, α and β casein)",[8],synthesised
same,phosphorylated ERK / sustained activation of the MAP kinase pathway,[9],dramatically increased
same,total ERK1/2,[9],decreased
